Source: publication PMC7316157 (Journal of the American Chemical Society, 2012)
Where two headings read alike, the source gives them in different places.

Experiments:
L-Ac-(FEFE)2-NH2 [1] = test: ITC
[2] = target: the molecule itself; test: isotope-edited IR spectroscopy
L-Ac-(FEFE)2-NH2 [3] = target: T1, L-Ac-(FEFE)2-NH2; test: ITC
T1 peptide: Ac-FEFEFEFE-NH2

[4] = target: the molecule itself; test: TEM + CD + IR spectroscopy of fibrils

In the case of D-Ac-(FKFK)2-NH2 (peptide), the dH (L-Ac-(FEFE)2-NH2 [1]) is reported as -31.6 kcal/mol.

Ac-F(1‑13C)KFEFKF(1‑13C)E-NH2 [L-Ac-(FKFE)2-NH2 doubly 1-13C-labeled at Phe 1/Phe 7]: binds [2].

With Ac-FKFKFKFK-NH2 [L-Ac-(FKFK)2-NH2] the dH (L-Ac-(FEFE)2-NH2 [3]) was -40.9 ± 0.6 kcal/mol.

Ac-FKFEFKFE-NH2 [L-Ac-(FKFE)2-NH2]: binds [4].
